Measured values: publication PMC9416547 (Nucleic Acid Therapeutics, 2022)

Legend:
[1] = target: T1, MBP-tagged NAT10 CTD (541-1025 AA) (UniProt Q9H0A0 541-1025); assay: pull-down
T1 sequence (looked up): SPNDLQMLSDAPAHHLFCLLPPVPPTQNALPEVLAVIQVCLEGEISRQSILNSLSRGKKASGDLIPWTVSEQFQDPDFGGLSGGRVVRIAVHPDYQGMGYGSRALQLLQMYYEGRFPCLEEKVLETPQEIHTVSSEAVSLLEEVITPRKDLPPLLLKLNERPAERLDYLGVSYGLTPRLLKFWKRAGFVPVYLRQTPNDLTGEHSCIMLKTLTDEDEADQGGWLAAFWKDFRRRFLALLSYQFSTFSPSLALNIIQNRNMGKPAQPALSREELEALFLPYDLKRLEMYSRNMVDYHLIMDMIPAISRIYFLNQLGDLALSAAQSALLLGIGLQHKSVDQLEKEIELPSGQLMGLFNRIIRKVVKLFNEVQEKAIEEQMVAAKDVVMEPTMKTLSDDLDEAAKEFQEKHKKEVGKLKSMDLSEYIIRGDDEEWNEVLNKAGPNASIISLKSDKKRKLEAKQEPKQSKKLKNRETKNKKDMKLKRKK

[2] = target: T2, MBP-tagged full-length NAT10 (UniProt Q9H0A0 1-1025); assay: pull-down
T2 sequence (looked up): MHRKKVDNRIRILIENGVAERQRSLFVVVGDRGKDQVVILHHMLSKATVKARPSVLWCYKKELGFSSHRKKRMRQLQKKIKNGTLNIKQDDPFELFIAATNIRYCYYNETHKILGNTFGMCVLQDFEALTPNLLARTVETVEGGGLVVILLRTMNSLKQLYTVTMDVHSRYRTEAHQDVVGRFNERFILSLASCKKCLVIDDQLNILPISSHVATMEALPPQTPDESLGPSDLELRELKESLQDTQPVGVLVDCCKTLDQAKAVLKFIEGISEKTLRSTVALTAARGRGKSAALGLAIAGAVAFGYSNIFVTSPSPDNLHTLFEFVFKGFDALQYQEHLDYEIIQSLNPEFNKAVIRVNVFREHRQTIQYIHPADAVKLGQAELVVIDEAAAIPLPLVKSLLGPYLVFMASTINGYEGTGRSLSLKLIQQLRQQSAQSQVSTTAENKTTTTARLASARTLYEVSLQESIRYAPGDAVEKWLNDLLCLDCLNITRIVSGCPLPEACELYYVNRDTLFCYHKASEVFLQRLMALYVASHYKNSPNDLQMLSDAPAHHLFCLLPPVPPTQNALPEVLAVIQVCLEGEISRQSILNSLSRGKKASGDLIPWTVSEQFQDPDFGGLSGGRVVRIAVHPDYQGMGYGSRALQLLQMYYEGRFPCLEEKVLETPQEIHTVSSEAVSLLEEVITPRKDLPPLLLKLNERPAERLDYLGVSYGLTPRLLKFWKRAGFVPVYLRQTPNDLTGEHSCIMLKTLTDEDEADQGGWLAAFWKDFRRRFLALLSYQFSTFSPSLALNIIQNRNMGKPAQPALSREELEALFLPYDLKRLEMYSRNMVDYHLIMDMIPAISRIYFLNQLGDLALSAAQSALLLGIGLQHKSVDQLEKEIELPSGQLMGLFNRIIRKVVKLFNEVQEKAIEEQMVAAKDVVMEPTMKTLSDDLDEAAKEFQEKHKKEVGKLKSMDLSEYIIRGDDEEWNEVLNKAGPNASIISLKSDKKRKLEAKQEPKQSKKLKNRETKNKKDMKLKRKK

binding result [1]: binds | binding result [2]: binds
B1: GST-fused full-length RNase H1 (enzyme, human, UniProt O60930 1-286, looked up)
chain: MSWLLFLAHRVALAALPCRRGSRGFGMFYAVRRGRKTGVFLTWNECRAQVDRFPAARFKKFATEDEAWAFVRKSASPEVSEGHENQHGQESEAKASKRLREPLDGDGHESAEPYAKHMKPSVEPAPPVSRDTFSYMGDFVVVYTDGCCSSNGRRRPRAGIGVYWGPGHPLNVGIRLPGRQTNQRAEIHAACKAIEQAKTQNINKLVLYTDSMFTINGITNWVQGWKKNGWKTSAGKEVINKEDFVALERLTQGMDIQWMHVPGHSGFIGNEEADRLAREGAKQSED
